The values below come from US20220409663A1.

The test has as its target transforming growth factor-beta receptor 2 (TGFBR2) (human) (UniProt P37173). In words: cell-based or functional assay.
UniProt P37173, sequence (P37173 23-567): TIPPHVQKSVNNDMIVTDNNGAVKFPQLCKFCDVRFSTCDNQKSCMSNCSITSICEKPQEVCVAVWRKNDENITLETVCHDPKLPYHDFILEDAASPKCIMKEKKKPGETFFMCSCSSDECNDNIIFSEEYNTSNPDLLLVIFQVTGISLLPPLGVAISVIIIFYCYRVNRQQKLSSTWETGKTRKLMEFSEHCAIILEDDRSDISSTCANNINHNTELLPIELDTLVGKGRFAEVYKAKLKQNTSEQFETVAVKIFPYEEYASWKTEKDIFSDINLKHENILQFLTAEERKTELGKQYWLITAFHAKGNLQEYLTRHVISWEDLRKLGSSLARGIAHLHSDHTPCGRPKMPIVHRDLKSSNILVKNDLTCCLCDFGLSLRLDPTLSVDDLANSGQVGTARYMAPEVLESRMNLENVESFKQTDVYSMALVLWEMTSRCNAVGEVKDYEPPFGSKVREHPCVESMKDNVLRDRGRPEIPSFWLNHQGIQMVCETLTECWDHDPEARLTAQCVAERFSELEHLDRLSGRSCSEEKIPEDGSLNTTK

As for “transforming growth factor-β (TGFβ) (ligand)”, the fold change in cytokine concentration from TGF-β:vehicle treated cells (pro-inflammatory cytokine secretion, 3 days, TGF-β 10 ng/ml) (fold change (ratio)) is less than 1.
